The results in this text go back to the RNAGym collection of RNA variant scans (doi:10.1093/molbev/msab373).

B1: Azoarcus group I ribozyme (parent)
chain: GUGCCUUGCGCCGGGAAACCACGCAAGGGAUGGUGUCAAAUUCGGCGAAACCUAAGCGCCCGCCCGGGCGUAUGGCAACGCCGAGCCAAGCUUCGGCGCCUGCGCCGAUGAAGGUGUAGAGACUAGACGGCACCCACCUAAGGCAAACGCUAUGGUGAAGGCAUAGUCCAGGGAGUGGCGAAAGUCACACAAACCGG

Variants of B1 are the subject of the series. Description: reverse-splicing fitness (ratio to wild type); higher = more active; in vitro selection; Mg2+ level not given. The method, boiled down: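 An in vitro group I ribozyme library with randomized positions was T7-transcribed and gel-purified. In triplicate, 10 pmol RNA in EPPS pH 7.5 was reacted with 50 pmoles of a 30-nt RNA substrate for 1 h at 37 °C across several added MgCl2 levels (1–48 mM), then stopped with EDTA. Products were reverse transcribed from a substrate-complementary primer, PCR-amplified and sequenced (HiSeq 4000). Fitness is a variant's read proportion after selection over that before, normalised to wild type.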
Turning to A111C A120C A145U C150U C169A U176G, the reverse-splicing fitness was 0.00715. The same measure for A120G A145C C169G U176A: 0.202; for C82A A111C C169G U176C: 0.0237. Consider C82A A111G A145C C169G U176G, for which the reverse-splicing fitness is 0.00487. The value for C82A A111U A120C A145G C150A U176A was 0.0105. The same measure for C82A A111U A120C A145C C150U C169A U176G: 0.00873. The value for C82G A145G C150G C169G U176A was 0.0113. On to C82A A120U A145U C150G C169G U176C, for which the reverse-splicing fitness was 0.00221. The same measure for C82A A120C A145G U176C: 0.0683.

As for C82A A111C A145G C150A C169A U176G, the reverse-splicing fitness turned out to be 0.0091.

As to A111C A120G A145U C150G U176G, the reverse-splicing fitness came out at 0.00305. The value for C82G A111C A120G A145G C150A C169U U176G was 0.00638. For C82A A111G A120U A145U C150G C169U, the reverse-splicing fitness is 0.00268.

For C82A A111G A120U A145U C150G C169G, the reverse-splicing fitness was determined as 0.00311. Consider A111U A120C A145G C150U C169G U176C, for which the reverse-splicing fitness stood at 0.0168. For the variant C82U A111C A120C A145U C150U C169U, the reverse-splicing fitness is 0.0107.

Take C82U A111G A120C A145U C150U C169U U176C: the reverse-splicing fitness was found to be 0.0124. Regarding C82U A120U A145U C150U C169U U176G, the reverse-splicing fitness was found to be 0.00217.

For A111G A120G A145C C169A, the reverse-splicing fitness worked out at 0.158. The value for C82G A111U A120U A145G C150G C169U U176C was 0.00721; that for C82U A111G A120G C150A C169G U176C was 0.0197. The value for C82U A111C A120G A145C C150A C169G U176A was 0.0204. The same measure for C82U A120C A145U C150U C169G U176G: 0.00405. As to C82A A120C A145C C150U C169U U176C, the reverse-splicing fitness came to 0.00988. The same measure for A111G A120G A145G C150G C169A U176G: 0.00709; for A111U A120G A145U C150A C169A U176A: 0.0123.

Consider C82A A111G A120U A145U C169U, for which the reverse-splicing fitness stood at 0.00422. The same measure for A111G A120U C169A U176C: 0.00321.

Consider A145C C150U C169U, for which the reverse-splicing fitness is 0.122.

Take C82A A120G C169U: the reverse-splicing fitness came out at 0.0166. The value for C82U A111U A120C A145C U176A was 0.0125; that for A111G A120C C150A C169G was 0.00862. The same measure for C82A A111U A120C A145U C150A C169U U176G: 0.00856. The value for A111C A120C A145C C150G C169A U176C was 0.00793; that for C82U A120G C150U C169G U176C was 0.0189; that for C82U A111G A145G C150A was 0.0568. Take C82A A111C C150G: the reverse-splicing fitness is 0.016. The same measure for C82G A111U A120C A145C C150A C169A U176A: 0.0162. The value for C82A A111U A120G A145C C150U U176A was 0.0105; that for C82U A111G A120C A145G C150A C169A U176C was 0.018. The same measure for C82G A120C A145U C150A C169A U176C: 0.0107. Consider C82G A111C A145C C150G C169A, for which the reverse-splicing fitness was 0.00941. For A120C A145C C169G U176G, the reverse-splicing fitness amounted to 0.00338. The value for C82U A111U A120U A145U C150A C169G U176G was 0.00192; that for C169U was 0.407; that for C82U A111G A145U C150A C169U was 0.0083.

In the case of C82G A111C A120U A145U C150G C169A, the reverse-splicing fitness worked out at 0.00457. The same measure for A145G U176C: 0.91. The same measure for C82U A111U A145G C150A C169A U176G: 0.00768; for C82A A120U C169G U176C: 0.00323; for C82U A111U A120U A145U: 0.0252. The value for A111U A145U C150U C169U U176A was 0.022. Take C82A A111G A120G A145G C169G U176C: the reverse-splicing fitness was 0.0276. The same measure for C82G A111U A120U A145C C150A C169U U176C: 0.00247; for C82U A111U A145C C150U C169A: 0.00776; for A145G C150A C169G U176A: 0.0321. The same measure for C82G A111U A120C A145U C150G C169G U176C: 0.007. The value for C82A A111G A120G A145C C169U U176A was 0.0193; that for A111C A145C C150U was 0.554; that for C82G A120G A145G C150G C169G U176C was 0.0129.

In the case of C82G A111G A120G A145G C150G C169G U176A, the reverse-splicing fitness is 0.0111. The same measure for C82A A111C A120G A145C C150U C169U U176C: 0.00813; for C82A A111C A120C A145U C150U U176A: 0.0128; for C82G A120G A145U C150U C169A: 0.0199. A120G A145U C169G U176A: the reverse-splicing fitness was found to be 0.206.

In the case of C82U A111G A120C C150G U176A, the reverse-splicing fitness amounted to 0.00392. The value for C82G A111G A120U A145G C150A C169A U176A was 0.00843; that for C82G A120G A145C C150U C169U U176G was 0.00404. The value for A111U A120U was 0.634. The same measure for C82A A111C A120U A145U C150A C169U U176G: 0.00282; for C82G A111G A120G C150G U176A: 0.0085. Consider C82G A111C A145G C150A C169G, for which the reverse-splicing fitness was 0.00789.

For C82U A111C A120C C150U C169G, the reverse-splicing fitness is 0.0078. The value for C82U A111C A120U C150U C169G U176A was 0.00387; that for C82G A111G A120G C150U C169U was 0.0114.

In the case of C82G A120C A145U C150U U176C, the reverse-splicing fitness came out at 0.0672.

As for C82G A120G A145C C150G U176A, the reverse-splicing fitness was found to be 0.00713. The same measure for C82A A111U A120U A145C C150A C169G: 0.00256. The same measure for C82U A111G A120U A145C U176C: 0.0117; for C82G A111U A120G A145G C150G C169U: 0.00909; for C82G A111U A120G A145G C150G C169G: 0.00782. The same measure for A111U A120U A145G C150G C169A: 0.00796.

Consider A111C C150U C169A U176G, for which the reverse-splicing fitness was 0.00796. The same measure for C82G A111C A145G C150G C169U: 0.0089.
